{"source": "paper PMC3414502", "about": "(2012)", "binders": {"B1": {"name": "Gαq (activated) (protein)", "chain": "MTLESIMACCLSEEAKEARRINDEIERQLRRDKRDARRELKLLLLGTGESGKSTFIKQMRIIHGSGYSDEDKRGFTKLVYQNIFTAMQAMIRAMDTLKIPYKYEHNKAHAQLVREVDVEKVSAFENPYVDAIKSLWNDPGIQECYDRRREYQLSDSTKYYLNDLDRVADPSYLPTQQDVLRVRVPTTGIIEYPFDLQSVIFRMVDVGGQRSERRKWIHCFENVTSIMFLVALSEYDQVLVESDNENRMEESKALFRTIITYPWFQNSSVILFLNKKDLLEEKIMYSHLVDYFPEYDGPQRDAQAAREFILKMFVDLNPDSDKIIYSHFTCATDTENIRFVFAAVKDTILQLNLKEYNLV", "modifications": "activated Gαq, with γ-synuclein"}}, "molecular_target": "PLCβ2 (Homo sapiens, UniProt Q00722)", "sequence (Q00722 whole entry)": "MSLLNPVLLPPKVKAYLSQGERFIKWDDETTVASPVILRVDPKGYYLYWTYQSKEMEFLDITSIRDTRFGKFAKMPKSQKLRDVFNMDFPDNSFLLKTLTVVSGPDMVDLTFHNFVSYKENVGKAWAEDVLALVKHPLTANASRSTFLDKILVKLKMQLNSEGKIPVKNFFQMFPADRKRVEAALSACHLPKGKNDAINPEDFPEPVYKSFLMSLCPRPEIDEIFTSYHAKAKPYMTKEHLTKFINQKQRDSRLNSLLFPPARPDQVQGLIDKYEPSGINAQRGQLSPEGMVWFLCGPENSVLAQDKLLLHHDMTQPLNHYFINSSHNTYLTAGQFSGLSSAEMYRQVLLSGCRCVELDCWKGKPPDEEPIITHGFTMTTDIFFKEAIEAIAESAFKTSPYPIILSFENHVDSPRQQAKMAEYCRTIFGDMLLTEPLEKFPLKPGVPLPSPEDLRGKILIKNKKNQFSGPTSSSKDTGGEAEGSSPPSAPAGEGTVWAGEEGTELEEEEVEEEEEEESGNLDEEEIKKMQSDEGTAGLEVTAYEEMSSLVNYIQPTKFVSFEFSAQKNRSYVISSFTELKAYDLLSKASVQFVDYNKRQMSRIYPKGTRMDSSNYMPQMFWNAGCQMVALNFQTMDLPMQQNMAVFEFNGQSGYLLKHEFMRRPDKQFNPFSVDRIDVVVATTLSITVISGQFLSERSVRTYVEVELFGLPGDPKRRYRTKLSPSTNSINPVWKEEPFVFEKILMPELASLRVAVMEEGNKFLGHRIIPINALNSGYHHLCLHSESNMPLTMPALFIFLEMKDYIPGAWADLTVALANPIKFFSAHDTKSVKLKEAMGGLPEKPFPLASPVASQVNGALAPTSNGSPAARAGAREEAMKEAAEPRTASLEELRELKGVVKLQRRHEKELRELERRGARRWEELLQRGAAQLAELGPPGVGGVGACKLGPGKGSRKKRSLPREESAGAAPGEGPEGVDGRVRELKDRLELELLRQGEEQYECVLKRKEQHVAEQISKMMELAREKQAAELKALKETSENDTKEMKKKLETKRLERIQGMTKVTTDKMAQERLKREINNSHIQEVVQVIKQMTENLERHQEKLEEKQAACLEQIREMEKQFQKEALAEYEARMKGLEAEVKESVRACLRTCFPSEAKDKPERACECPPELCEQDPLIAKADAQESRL", "test": "fluorescence titration"}
{"binder": "B1", "values": [{"measurement": "Kd", "result": 0.9, "unit": "nM"}]}
